From article PMC8562663

Columns and labels:
[1] = molecular target: membrane-bound lytic murein transglycosylase A (MltA) from Acinetobacter baumannii, N-terminally truncated (Gly23-Asn388), wild type (Acinetobacter baumannii); test: SEC-MALS; Ni-NTA-purified protein on Superdex 200 10/300, 20 mM Tris-HCl pH 8.0, 150 mM NaCl, 0.3 ml/min, 25°C; DAWN TREOS detector; self-association
[2] = molecular target: abMltA triple mutant (D151K, Y162K or Y162W, E164K); test: SEC-MALS; settings: read off a plot

stoichiometry N [1] | Substance | other: molecular mass (MALS) [2] [Da]
2 | membrane-bound lytic murein transglycosylase A (MltA) from Acinetobacter baumannii, N-terminally truncated (Gly23-Asn388), wild type (enzyme) | –
– | membrane-bound lytic murein transglycosylase A (MltA) from Acinetobacter baumannii, N-terminally truncated (Gly23-Asn388), wild type D151K; Y162W; E164K | 45000
